Measurements from PMC7597377 (Science signaling, 2020).
Read-outs that look alike come from different tables or passages of the source.

Columns and labels:
Assay in all cases: FRET or BRET
[1] = molecular target: T1, ERα ligand-binding domain, wild type (ERα-LBD-biotin) (human, biotin)
[2] = molecular target: T2, ERα ligand-binding domain Q375K (ERα-LBD-biotin) (human, biotin)
[3] = molecular target: T3, ERα ligand-binding domain Q375E (ERα-LBD-biotin) (human, biotin)
[4] = molecular target: T4, ERα ligand-binding domain Q375A (ERα-LBD-biotin) (human, biotin)
[5] = molecular target: T1, ERα ligand-binding domain, wild type …; remark: listed apart in the source
[6] = molecular target: T2, ERα ligand-binding domain Q375K …; remark: listed apart in the source
[7] = molecular target: T3, ERα ligand-binding domain Q375E …; remark: listed apart in the source
[8] = molecular target: T4, ERα ligand-binding domain Q375A …; remark: listed apart in the source
[9] = molecular target: T1, ERα ligand-binding domain, wild type …; remark: listed apart in the source
[10] = molecular target: T2, ERα ligand-binding domain Q375K …; remark: listed apart in the source
[11] = molecular target: T3, ERα ligand-binding domain Q375E …; remark: listed apart in the source
[12] = molecular target: T4, ERα ligand-binding domain Q375A …; remark: listed apart in the source
[13] = molecular target: T1, ERα ligand-binding domain, wild type …; remark: listed apart in the source
[14] = molecular target: T2, ERα ligand-binding domain Q375K …; remark: listed apart in the source
[15] = molecular target: T3, ERα ligand-binding domain Q375E …; remark: listed apart in the source
[16] = molecular target: T4, ERα ligand-binding domain Q375A …; remark: listed apart in the source
[17] = molecular target: T1, ERα ligand-binding domain, wild type …; remark: listed apart in the source
[18] = molecular target: T2, ERα ligand-binding domain Q375K …; remark: listed apart in the source
[19] = molecular target: T3, ERα ligand-binding domain Q375E …; remark: listed apart in the source
[20] = molecular target: T4, ERα ligand-binding domain Q375A …; remark: listed apart in the source
[21] = molecular target: T1, ERα ligand-binding domain, wild type …; remark: listed apart in the source
[22] = molecular target: T2, ERα ligand-binding domain Q375K …; remark: listed apart in the source
[23] = molecular target: T3, ERα ligand-binding domain Q375E …; remark: listed apart in the source
[24] = molecular target: T4, ERα ligand-binding domain Q375A …; remark: listed apart in the source

B1: SRC1 NR interaction domain (ca. 200 amino acids), FRET acceptor-labeled (domain or fragment)
chain: PSRLNIQPAKAESKDNKEIASILNEMIQSDNSSSDGKPLDSGLLHNNDRLSDGDSKYSQTSHKLVQLLTTTAEQQLRHADIDTSCKDVLSCTGTSNSASANSSGGSCPSSHSSLTERHKILHRLLQEGSPSDITTLSVEPDKKDSASTSVSVTGQVQGNSSIKLELDASKKKESKDHQLLRYLLDKDEKDLRSTPNLSLDDVKVKVEKKEQ
modifications: FRET acceptor label (not named)
- Kd [1]: 3.5 nM
- Kd [2]: 1.5 nM
- fold reduction in SRC1 binding vs WT ER (Kd mutant/Kd WT) [3]: 7.4 fold
- fold reduction in SRC1 binding vs WT ER (Kd mutant/Kd WT) [4]: 21 fold
- Kd [5]: 6.8 nM
- Kd [6]: 2.2 nM
- fold reduction in SRC1 binding vs WT ER (Kd mutant/Kd WT) [7]: 2.8 fold
- fold reduction in SRC1 binding vs WT ER (Kd mutant/Kd WT) [8]: 8.8 fold
- Kd [9]: 3.4 nM
- Kd [10]: 1.7 nM
- fold reduction in SRC1 binding vs WT ER (Kd mutant/Kd WT) [11]: 11 fold
- fold reduction in SRC1 binding vs WT ER (Kd mutant/Kd WT) [12]: 17 fold
- Kd [13]: 6.4 nM
- Kd [14]: 2.1 nM
- fold reduction in SRC1 binding vs WT ER (Kd mutant/Kd WT) [15]: 3.4 fold
- fold reduction in SRC1 binding vs WT ER (Kd mutant/Kd WT) [16]: 8 fold
- fold increase in SRC1 binding with ligand vs E2 (Kd E2/Kd compound) [17]: 0.3 fold
- fold increase in SRC1 binding with ligand vs E2 (Kd E2/Kd compound) [18]: 0.16 fold
- fold reduction in SRC1 binding vs WT ER (Kd mutant/Kd WT) [18]: 0.62 fold
- fold reduction in SRC1 binding vs WT ER (Kd mutant/Kd WT) [19]: 4.2 fold
- fold reduction in SRC1 binding vs WT ER (Kd mutant/Kd WT) [20]: 5.5 fold
- Kd [21]: 3 nM
- Kd [22]: 1.6 nM
- fold reduction in SRC1 binding vs WT ER (Kd mutant/Kd WT) [23]: 8.7 fold
- fold reduction in SRC1 binding vs WT ER (Kd mutant/Kd WT) [24]: 16 fold
